According to paper PMC7176140, “Thermal stability analyses of human PERIOD-2 C-terminal domain using dynamic light scattering and circular dichroism” (PLoS ONE, 2020):

Molecular target: the molecule itself
Experiment: SEC; analytical Superdex 200 Increase 10/300 GL; hPER2c dimer fraction treated with 20mM DTT for 36hrs; buffer 20mM Tris-base pH7.5, 50mM NaCl, 20mM DTT; calibrated with molecular weight standards

B1: human PERIOD-2 C-terminal domain (recombinant hPER2c, residues 1130 to 1252) (domain or fragment, UniProt O15055 1130-1252, looked up)
chain: CVLQDPIWLLMADADSSVMMTYQLPSRNLEAVLKEDREKLKLLQKLQPRFTESQKQELREVHQWMQTGGLPAAIDVAECVYCENKEKGNICIPYEEDIPSLGLSEVSDTKEDENGSPLNHRIE
notes: C-terminal domain of human PER2 (PERIOD-2), residues 1130 to 1252; Elutes from SEC as an aggregated form, 40mer, 20mer and dimer; The authors conclude that disulfide bonds stabilise the dimer; No tag removal is described; also called human PER2c; not shown: His tag (from the vector pCold I)
  stoichiometry N: 6
